# System: BG4 (anti-G-quadruplex antibody)
# Test: sandwich ELISA
# Details: K1 pre-bound to immobilized wild-type spike, ELONA: 20 mM Tris, 5 mM KCl, 2 mM MgCl2, 0.5 mM CaCl2, pH 7.4, room temperature, BG4 sandwich ELISA: Methods give 20 mM Tris, 5 mM MgCl2 …
sequence,measurement,value
AATGGATCCACATCTACGAGCTCGAACGCCCGGAGGAGACGGGGGCAGGGCGTGTTCACTGCAGACTTGACGAAGCT [K1 (truncated working aptamer)],Kd,1.77 nM

# Reference: PMC10197177
